± gives the standard deviation.
Assay: protein stability index of a GFP-peptide fusion (GPS, HEK-293T) (PSI 1-6); higher = more stable
Conditions: c terminus: a fixed tail appended
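Note: 24-mer peptide tiles fused after GFP, lentivirally expressed, FACS-sorted into six equal bins by GFP/DsRed ratio, decoded by Illumina sequencing, PSI is the read-weighted mean bin number.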

Sequence | protein stability index (treatment: DMSO) | protein stability index (treatment: MLN4924 1 uM, 8 h)
QLVVMHPTPQVDELDILPIHPPSG [BTBD10] | 3.74 ± 0.1 | 3.75 ± 0.11
ERAVKRMRHLSTGTMTGLAIQYAL [MATN2] | 2.39 ± 0.44 | 2.22 ± 0.32
LLPYFYIIYMAILLTHRCLRDEHR [DHCR7] | 3.25 ± 0.52 | 3.05 ± 0.2
ECHIVVLTDDDVVDWDEEYPPQMG [BTBD10] | 3.34 ± 0.29 | 3.73 ± 0.42
TVGLLWFAHHSLFLHVRKATRAMG [TMEM175] | 2.46 ± 0.15 | 2.42 ± 0.39
AGGIRESKESSKEKKLTVRQDLED [C22orf31] | 5.56 ± 0.12 | 5.48 ± 0.3
TWLKGKFTELRLLLDEEEALAKKF [TRIM14] | 2.23 ± 0.42 | 2.34 ± 0.23
CERVVINVSGLRFETQMKTLAQFP [KCNA4] | 2.55 ± 0.42 | 2.51 ± 0.77
MEGLEENGGVVQVGELLPCKICGR [ZC2HC1A] | 4.13 ± 0.21 | 4.26 ± 0.48
SCIMENGHQPGTGPGDGPPEIAQN [SMTNL2] | 4.95 ± 0.28 | 4.99 ± 0.074
PITRKAAQLYTLWVTFQVLLYTSL [DHCR7] | 3.07 ± 0.22 | 2.56 ± 0.51
QLAEENERLKQEIERLTREVEATR [DDIT3] | 5.4 ± 0.26 | 5.51 ± 0.32
ELALFQMSVLWLEHDRETRMQYAP [KLHL14] | 2.44 ± 0.58 | 2.46 ± 0.34
MFQGWNCGDYFPDGITNGASWYSL [CPN1] | 2.7 ± 0.37 | 2.31 ± 0.45
VKKYKSMKLEKEEFVTLKAIALAN [ESRRG] | 2.46 ± 0.32 | 2.66 ± 0.2
MYFSQEEWELLDPTQKALYNDVMQ [ZNF75A] | 3.67 ± 0.08 | 3.74 ± 0.33
DNEDYPLFRELWRYHFATGVWHQM [KLHDC10] | 2 ± 0.76 | 2.03 ± 0.46
AHSNEILIFSVQPKSLVRLSLEAV [KLHDC2] | 3.01 ± 0.48 | 2.6 ± 0.12
SVDWLSQSSCSGPTHTPRPADFSL [VENTX] | 3.21 ± 0.25 | 3.28 ± 0.15
YPPPPPALPSSAPSGPPPPPPSVL [WASL] | 4.54 ± 0.2 | 4.5 ± 0.16
SYRPAYDQGGPVEILPFLYLGSAY [DUSP5] | 2.08 ± 0.33 | 2.18 ± 0.32
LKAEELLLKIHEVSTVSHADADCF [CASP6] | 3.03 ± 0.15 | 3.14 ± 0.28
THFTFKDLHFKMFDVGGQRSERKK [GNAI1] | 2.83 ± 0.33 | 2.93 ± 0.15

Sequence | protein stability index (treatment: DMSO) | protein stability index (treatment: MLN4924 1 uM, 8 h)
EDGEKAAREVKLLLLGAGESGKST [GNAI1] | 4.78 ± 0.25 | 5.28 ± 0.19
NKPGCEHECVNMEESYYCRCHRGY [MATN2] | 4.3 ± 0.72 | 4.24 ± 0.22
VVCAFFKQGQCTKGDKCKFSHDLT [ZC3H15] | 4.26 ± 0.64 | 4.1 ± 0.47
FIVIDAMLERIKHEKTVDIYGHVT [PTPRD] | 3.04 ± 1.2 | 2.5 ± 1.1
RFEQEAVAVDSNLRVRELQRKVDG [CCDC89] | 4.98 ± 0.28 | 4.9 ± 0.29
DMKPITVGGKIVGSLCAIAGVLTI [KCNA4] | 2.88 ± 0.57 | 3.11 ± 0.32
AARAAGRDVAAEAVARSPKRPAWG [POMT2] | 4.1 ± 0.29 | 4.29 ± 0.51
DSGQNAWLSYRLLKASEPGLFAVG [PCDHGA10] | 2.14 ± 0.09 | 2.13 ± 0.063
LASGRIILILEGGYNLTSISESMA [HDAC6] | 2.63 ± 0.14 | 2.82 ± 0.79
KLQYQLRNVRERIAKNLVEKGILT [GOLPH3L] | 2.17 ± 0.16 | 2.28 ± 0.19
PPHICWDETHFGKMGSYYINRTFF [POMT2] | 2.1 ± 0.44 | 2.23 ± 0.4
AMEAVRVNPLHVDSTWLLLRRIRA [SLC25A39] | 2.66 ± 0.41 | 2.81 ± 0.19
VFDLPESLGGIRACTLTVFPPEET [KLHL13] | 3.33 ± 0.41 | 3.39 ± 0.37
TARVIIPLLKDEGFAVKALWGRTQ [GFOD1] | 2.08 ± 0.32 | 2.27 ± 0.35
DNRCKLFDSPSLCSSSTRSVLKRP [CDC25A] | 3.48 ± 0.2 | 3.64 ± 0.28
TSWSQHCPWEPQKQPPWEFLQVLE [SPAG8] | 2.31 ± 0.13 | 2.55 ± 0.29
TKEGGMLAYYEVCSWKGATKQRIQ [CHIT1] | 2.26 ± 0.53 | 2.91 ± 0.65
GIGKNVICDRTATPLDAFRMTSAA [GFOD1] | 3.43 ± 0.25 | 3.45 ± 0.17
SGVGIDGEVLSYLELAQFHNAHQL [RHOBTB1] | 2.56 ± 0.33 | 2.67 ± 0.45
ALLGYEMVQVACGASHVLALSTER [NEK8] | 2.5 ± 0.88 | 2.12 ± 0.44
DSMPQDLSEALKEATKEVHTQAEN [HMOX1] | 5.39 ± 0.26 | 5.51 ± 0.19
EKAVANFDRTEWVQIRRLEAAGES [ZC2HC1C] | 4.49 ± 0.12 | 4.48 ± 0.26
PDLRDIELKLGRKVPESLVRSLRG [LURAP1L] | 3.16 ± 0.4 | 3.17 ± 0.41

Sequence | protein stability index (treatment: DMSO) | protein stability index (treatment: MLN4924 1 uM, 8 h)
KAKPEPDILEEEKIYAYPSNITSE [TMEM192] | 4.82 ± 0.2 | 4.83 ± 0.2
LSPLSLAQYDSWPHYPEYFQQPAP [LOXL2] | 2.62 ± 0.12 | 2.87 ± 0.18
KASNSIISCFNNAPPAKLACPVCS [FAN1] | 2.92 ± 0.15 | 3.1 ± 0.4
HALSGHAKVKPFDPKITCKQECLI [TPH1] | 2.13 ± 0.27 | 2.12 ± 0.19
ALLHQAETLQPSVWFGGREHVLMF [TMEM175] | 2.28 ± 0.51 | 1.95 ± 0.5
FFHLSALKGYLYAVGGRNAAGELP [KLHL13] | 2.56 ± 0.62 | 2.27 ± 0.26
LELLSAPELKSLAKTFHLVNPNGQ [FAN1] | 2.74 ± 0.13 | 2.84 ± 0.095
FGRGSRTVDLELELQIELLRETKR [ARFIP2] | 2.26 ± 0.15 | 2.32 ± 0.26
LGGRALMNCLPSNRTLWRLDLAGN [LRRC45] | 2.5 ± 0.41 | 2.32 ± 0.28
NVVTIGLAFFPFLHRLFREKSLDQ [PHTF1] | 2.24 ± 0.32 | 2.3 ± 0.47
EGSADTEDRKLPAPGADVKVHRAR [EHMT1] | 5.27 ± 0.44 | 5.41 ± 0.17
EQLERIERKNAEMYKLSSEQFHEA [CHCHD6] | 4.52 ± 0.46 | 4.78 ± 0.12
DCLQLIADSETPTIQKGSYTFVPW [TNFSF13B] | 2.19 ± 0.28 | 2.2 ± 0.18
NARGASIFSVTALDPDSKENAQII [PCDHGA10] | 3.75 ± 0.12 | 3.97 ± 0.24
LALVTLLSFATRFHRLDEPPHICW [POMT2] | 3.25 ± 0.61 | 3.19 ± 0.22
PGYPKMIAHDFPGIGHKVDAVFMK [MMP1] | 2.75 ± 0.17 | 3.02 ± 0.33
GADCGIQWWNAVFIMLLIGIVLPV [LYSMD4] | 2.88 ± 0.1 | 3.03 ± 0.45
TFAMVKGYFFPTSARDCKFTGNFF [DHCR7] | 2.56 ± 0.39 | 2.71 ± 0.43
DNLLLDAKGHVKLSDFGLCTGLKK [STK38L] | 3.12 ± 0.1 | 3.38 ± 0.44
FSVRPGTEATISIREDEVHRLGSP [SCNN1D] | 4.16 ± 0.16 | 4.2 ± 0.12
SSPKFREEAAFPGRRVNAKMPVYS [ELOA2] | 3.3 ± 0.17 | 3.48 ± 0.14
SRRASESSLSSESSESSDAGLCMD [CDC25B] | 5.06 ± 0.39 | 5.33 ± 0.18
AAGTHDGSVYFWATPRQVPSLQHL [WSB1] | 2.52 ± 0.22 | 2.64 ± 0.21

Sequence | protein stability index (treatment: DMSO) | protein stability index (treatment: MLN4924 1 uM, 8 h)
PTPSTPRPTPQDWLHRRAQILEIL [ADAMTS4] | 2.97 ± 0.23 | 2.98 ± 0.25
MHPGRTTGKGPSTHTQIDQQPPRL [M1AP] | 4.45 ± 0.1 | 4.511 ± 0.026
NDRVQTIITQLEDSRRVTKENSHQ [TRIM63] | 4.99 ± 0.23 | 4.92 ± 0.13
MYSEIQRERADIGGLMARPEYREW [FAM107A] | 2.93 ± 0.26 | 2.92 ± 0.42
DNSPTSNSLEGGTDATAFWWGEWT [ADAMTSL2] | 3.62 ± 0.35 | 
DKDKSDDRMARPSGRSGHNTRGTG [CSNK1G3] | 5.6 ± 0.29 | 5.43 ± 0.52
EKGRALQIRDWRGGRLENQKPRGL [ZSWIM9] | 4 ± 0.34 | 4.2 ± 0.35
EQIRFVMKAHSFVRENVPRVLNSA [SOAT1] | 2.58 ± 0.46 | 2.48 ± 0.41
QDLCCRAIVSCTPVHLIDKLPLPV [RAB40C] | 2.4 ± 0.24 | 2.16 ± 0.18
GGGNDRVRNLQSEVEGVKNIMTQN [VAMP8] | 4.61 ± 0.34 | 4.75 ± 0.35
SILFGHENRVSTLRVSPDGTAFCS [GNB5] | 2.88 ± 0.41 | 3.02 ± 0.13
DTVTEVTARMEMLIEELYAFMPAR [CBY2] | 2.38 ± 0.25 | 2.47 ± 0.48
TALHIACYNGQDAVVNELIDYGAN [ANKRD44] | 2.69 ± 0.27 | 2.86 ± 0.24
MMYSAELWRYRTITFSGRPSRVHA [FBXO39] | 2.23 ± 0.091 | 2.46 ± 0.2
QGEMDRKCKQVKEKCKEEFVEEIK [ZMYND11] | 4.91 ± 0.32 | 5.43 ± 0.24
ENNMLQPETHIFTAPEEVPKVSDQ [DMRTC1] | 5.57 ± 0.18 | 5.56 ± 0.21
EEDLQSQSETQGLEGAQAPLAVEE [MAGEA10] | 5.73 ± 0.14 | 5.75 ± 0.089
WLPLATLIDEKVLILHGGVSDITD [PPEF2] | 2.22 ± 0.64 | 2.4 ± 0.58
RLLLAESGLSFITFICYVASSASA [CMTM3] | 2.53 ± 0.94 | 2.43 ± 0.77
RTERVEQAFRAIDRGDYYLEGYRD [PCMTD1] | 3.77 ± 0.17 | 3.82 ± 0.17
